Data from US20230293649A1 (BIOVENTURES, published 2023).

B1: cathepsin K (Cathepsin K Drug Discovery Kit, Enzo Life Sciences) (protein)
chain: APDSVDYRKKGYVTPVKNQGQCGSCWAFSSVGALEGQLKKKTGKLLNLSPQNLVDCVSENDGCGGGYMTNAFQYVQKNRGIDSEDAYPYVGQEESCMYNPTGKAAKCRGYREIPEGNEKALKRAVARVGPVSVAIDASLTSFQFYSKGVYYDESCNSDNLNHAVLAVGYGIQKGNKHWIIKNSWGENWGNKGYILMARNKNNACGIANLASFPKM
B2: recombinant CST6 (R&D Systems, Minneapolis, MN) (other, UniProt Q15828 29-149, looked up)
chain: RPQERMVGELRDLSPDDPQVQKAAQAAVASYNMGSNSIYYFRDTHIIKAQSQLVAGIKYFLTMEMGSTDCRKTRVTGDHVDLTTCPLAAGAQQEKLRCDFEVLVVPWQNSSQLLKHNCVQM
notes: also called recombinant cystatin E/M; cystatin M/E

Columns and labels:
E-cadherin, P12830 = target: T1, E-cadherin, P12830
T1 chain: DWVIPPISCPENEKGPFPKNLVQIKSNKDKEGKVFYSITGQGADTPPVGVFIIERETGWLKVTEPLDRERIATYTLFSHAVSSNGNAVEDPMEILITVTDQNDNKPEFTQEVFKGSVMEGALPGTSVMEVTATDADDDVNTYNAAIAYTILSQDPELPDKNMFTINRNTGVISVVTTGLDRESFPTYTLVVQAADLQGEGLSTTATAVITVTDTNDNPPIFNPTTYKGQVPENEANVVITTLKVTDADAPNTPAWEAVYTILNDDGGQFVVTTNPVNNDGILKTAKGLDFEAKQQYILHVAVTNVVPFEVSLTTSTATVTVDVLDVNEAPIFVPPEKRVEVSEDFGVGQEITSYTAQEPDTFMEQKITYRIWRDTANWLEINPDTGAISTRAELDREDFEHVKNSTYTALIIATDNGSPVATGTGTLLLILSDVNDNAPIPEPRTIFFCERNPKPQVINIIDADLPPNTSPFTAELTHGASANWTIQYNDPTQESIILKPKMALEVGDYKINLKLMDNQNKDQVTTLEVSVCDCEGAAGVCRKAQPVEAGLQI

[1] = target: T2, recombinant CST6 (R&D Systems, Minneapolis, MN), Q15828
T2 chain: B2 chain

N-cadherin, P19022 = target: T3, N-cadherin, P19022
T3 chain: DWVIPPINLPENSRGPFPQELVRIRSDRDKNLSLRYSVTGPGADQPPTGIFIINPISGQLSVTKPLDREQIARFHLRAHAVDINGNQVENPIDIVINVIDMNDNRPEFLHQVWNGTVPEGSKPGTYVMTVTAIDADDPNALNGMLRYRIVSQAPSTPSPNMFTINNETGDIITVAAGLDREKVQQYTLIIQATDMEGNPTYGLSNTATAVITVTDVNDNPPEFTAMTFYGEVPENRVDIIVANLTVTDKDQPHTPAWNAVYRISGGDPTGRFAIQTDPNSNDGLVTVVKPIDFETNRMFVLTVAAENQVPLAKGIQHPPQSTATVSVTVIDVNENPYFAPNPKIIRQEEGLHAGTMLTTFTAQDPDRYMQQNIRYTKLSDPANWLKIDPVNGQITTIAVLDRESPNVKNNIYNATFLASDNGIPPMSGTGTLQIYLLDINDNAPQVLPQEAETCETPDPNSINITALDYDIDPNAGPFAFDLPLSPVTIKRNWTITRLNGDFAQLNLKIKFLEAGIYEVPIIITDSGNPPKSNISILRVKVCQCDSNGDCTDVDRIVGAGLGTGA

[2] = target: T4, cathepsin K (Cathepsin K Drug Discovery Kit, Enzo Life Sciences) (UniProt P43235 115-329, limits assumed); test: inhibition of cathepsin K cleavage of the fluorogenic substrate Z-Phe-Arg-AMC; non-linear regression of initial rates
T4 construct: also called CTSK; CatK
T4 sequence (looked up): B1 chain
Experimental: The ability of recombinant CST6 (R&D Systems, Minneapolis, MN) to inhibit cathepsin K protease activity was assessed using the Cathepsin K Drug Discovery Kit (Enzo Life Sciences International, Plymouth Meeting, PA). Fluorimetric assays were done in triplicate in 96-well microtitre plates using cathepsin K, the fluorogenic synthetic substrate Z-Phe-Arg-AMC in the presence of the cathepsin K assay buffer. Inhibitory activity of CST6 towards cathepsin K was measured in serum-free conditioned media from the H929 cell line stably infected with pWPI or CST6 lentivirus. Conditioned media equating to 25 μg was added to each well and inhibitory activity was evaluated by measuring the residual enzyme activity. Recombinant CST6 was added to assays at various concentrations and the resultant fluorescence was measured using a SpectraMax M2 microplate reader (Molecular Devices, Sunnyvale, CA) with excitation at 380 nm and emission at 460 nm wavelengths. The initial rates from the CatK progress curves in the presence of predetermined concentrations of recombinant CST6 were subjected to non-linear regression analysis (Morrison and Walsh, 1988) using GraFit® software (Erithacus Software Limited, Surrey, UK) to determine the inhibition constant (Ki).

Binder	cleavage of E-cadherin (in vitro assay) (E-cadherin, P12830)	cleavage of E- and N-cadherin by cathepsin K (in vitro assay) [1]	cleavage of N-cadherin (in vitro assay) (N-cadherin, P19022)	Ki [2] [nM]
B1	cathepsin K can cleave E- and N-cadherin using an in vitro assay	the addition of recombinant Cst6 can inhibit this cleavage	cathepsin K can cleave E- and N-cadherin using an in vitro assay	
B2				3.84
